US20090221680, “Aptamers that bind thrombin with high affinity” (published 2009)

How the values were obtained:
[1] = target: T1, thrombin (alpha-thrombin) (Homo sapiens, UniProt P00734;P00734 P00734:315-363,P00734:364-622); test: filter; DPBS Ca Mg, BSA, RT
[2] = target: T2, thrombin (endogenous, clotting assay in plasma or whole blood) (Homo sapiens, UniProt P00734;P00734 P00734:328-363,P00734:364-622); test: inhibition; PT at 10 uM, instrument maximum
[3] = target: T2, thrombin (endogenous, clotting assay in …); test: inhibition; PT at 10 uM, parent 300 s
[4] = target: T2, thrombin (endogenous, clotting assay in …); test: inhibition; ACT at 10 uM
[5] = target: T1, thrombin (alpha-thrombin); test: filter
[6] = target: thrombin (endogenous, in vivo, ACT of whole blood) (Macaca fascicularis, UniProt A0A2K5UZ51;A0A2K5UZ51 A0A2K5UZ51:325-360,A0A2K5UZ51:361-619); test: inhibition; maximum ACT in monkey, IV bolus 0.46 umol/kg
[7] = target: T1, thrombin (alpha-thrombin); test: filter; NB, non binder
[8] = target: T1, thrombin (alpha-thrombin); test: filter; DPBS Ca2+ Mg2+, 0.1 mg/ml BSA, room temp
thrombin = thrombin (Sus scrofa, UniProt Q19AZ8;Q19AZ8 Q19AZ8:316-364,Q19AZ8:365-622); test: filter; species cross-reactivity

ACTGCCTAGGTTGGGTAGGGTGGTGGCAGT (ssDNA, PS linkage between nt 1 and 2) [ARC2644] was tested, and the Kd [1] was 0.183 nM.

In the case of TCCTGATCGGATGTGGTGGGTTATTGGTTTGGGTGGCTGAGGATCGATC (ssDNA) [AMX(453)_F6], the activity [2] is reported as 300 s.

In the case of TCCCGAGCGATATTGCCTAGGTTGGGTAGGGTGGTGGCTGAGGATCGATC (ssDNA) [AMX(454)_F2], the activity [2] is reported as 300 s.

In the case of GGTTGGGTAGGGTGG (ssDNA) [Minimer 3], the activity [3] is reported as 25.8 s.

CGCCTAGGTTGGGTAGGGTGGTGGCG (ssDNA, 5'-PEG 10 kDa via hexylamine) [ARC2329] showed an activity [4] of 664 s.

Binder ACTGCCTAGGTTGGGTAGGGTGGTGGCAGT (ssDNA) [ARC2169] has a Kd [5] of 0.135 nM and an activity [6] of 542 s.

CGCTAGGTTGGGTAGGGTGGTGCG (ssDNA, 2'-OMe at positions 1, 2, 23, 24) [ARC2949] gave an activity [6] of 403 s.

ACTGCCTAGGTTGGGTAGGGUGGTGGCAGT (XNA, 2'-OMe U21, rest DNA) [ARC2633]: no binding [7].

With GGCCGATCAGGCTAGGTTGGGTAGGGTGGTGGCTGAGGATCGGCC (ssDNA) [Minimer 7] the activity [3] was 83.3 s.

Work on TCCCATCGAGCTCAGTCTAGGATGGGTAGGGTGGTGGCTGAGGATCGATC (ssDNA) [AMX(453)_B6] yielded an activity [2] of 300 s.

Binder ACTGCCTAGGTTGGGTAGGGTGGTGGCAGT (ssDNA, 5'-PEG 10 kDa via hexylamine) [ARC2323] has an activity [4] of 514 s.

For TCCCTGCAATTCGATCAGCAGGGGTGGTGTGGGTGGCTGAGGATCGATC (ssDNA) [AMX(395)_A1], the Kd [8] was 6.4 nM.

ACTGCCTAGGTUGGGTAGGGTGGTGGCAGT (XNA, 2'-OMe U12, rest DNA) [ARC2624]: no binding [7].

In the case of CGCCTAGGTTGGGTAGGGTGGTGGCG (ssDNA) [ARC2172], the binding result (thrombin) is reported as “binds”, the Kd [5] is reported as 0.14 nM and the activity [6] is reported as 527 s.

Binder CCGGCTAGGTTGGGTAGGGTGGTGGCTGG (ssDNA) [Minimer 11] has an activity [3] of 27.9 s.

CGCCTAGGTTGGGTAGGGTGGTGGCG (ssDNA, 5'-hexylamine) [ARC2324] showed an activity [4] of 424 s.
